Data taken from publication PMC12624060, “Structures of human organellar SPFH protein complexes” (Nature Communications, 2025).

B1: N-terminally Strep-tagged PHB1 (stable Expi293F line) (natural protein, human)
chain: MAAKVFESIGKFGLALAVAGGVVNSALYNVDAGHRAVIFDRFRGVQDIVVGEGTHFLIPWVQKPIIFDCRSRPRNVPVITGSKDLQNVNITLRILFRPVASQLPRIFTSIGEDYDERVLPSITTEILKSVVARFDAGELITQRELVSRQVSDDLTERAATFGLILDDVSLTHLTFGKEFTEAVEAKQVAQQEAERARFVVEKAEQQKKAAIISAEGDSKAAELIANSLATAGDGLIELRKLEAAEDIAYQLSRSRNITYLPAGQSVLLQLPQ
notes: PHB1 (prohibitin 1), human; cDNA in pHAGE; 11 copies in the 22-subunit PHB1/2 complex; also called prohibitin; source: solubilised membranes (DDM/CHS) and complex purified on StrepTactin; not shown: Strep, N-terminal, kept; copies: 11
B2: C-terminally Flag-tagged Erlin2 (natural protein, human)
chain: MAQLGAVVAVASSFFCASLFSAVHKIEEGHIGVYYRGGALLTSTSGPGFHLMLPFITSYKSVQTTLQTDEVKNVPCGTSGGVMIYFDRIEVVNFLVPNAVYDIVKNYTADYDKALIFNKIHHELNQFCSVHTLQEVYIELFDQIDENLKLALQQDLTSMAPGLVIQAVRVTKPNIPEAIRRNYELMESEKTKLLIAAQKQKVVEKEAETERKKALIEAEKVAQVAEITYGQKVMEKETEKKISEIEDAAFLAREKAKADAECYTAMKIAEANKLKLTPEYLQLMKYKAIASNSKIYFGKDIPNMFMDSAGSVSKQFEGLADKLSFGLEDEPLETATKEN
modifications: N-linked glycan on N106
notes: Erlin2, human; cDNA in pcDNA5; 13 copies in the 26-subunit Erlin1/2 complex as modelled; also called Erlin2-Flag; source: Expi293F, co-transfected with Strep-Erlin1; complex purified (StrepTactin, anti-FLAG M2, Superose 6) in DDM/CHS; not shown: Flag, C-terminal, kept; copies: 13
B3: N-terminally Strep-tagged Erlin1 (natural protein, human)
chain: MTQARVLVAAVVGLVAVLLYASIHKIEEGHLAVYYRGGALLTSPSGPGYHIMLPFITTFRSVQTTLQTDEVKNVPCGTSGGVMIYIDRIEVVNMLAPYAVFDIVRNYTADYDKTLIFNKIHHELNQFCSAHTLQEVYIELFDQIDENLKQALQKDLNLMAPGLTIQAVRVTKPKIPEAIRRNFELMEAEKTKLLIAAQKQKVVEKEAETERKKAVIEAEKIAQVAKIRFQQKVMEKETEKRISEIEDAAFLAREKAKADAEYYAAHKYATSNKHKLTPEYLELKKYQAIASNSKIYFGSNIPNMFVDSSCALKYSDIRTGRESSLPSKEALEPSGENVIQNKESTG
modifications: N-linked glycan on N108
notes: Erlin1, human; cDNA in pcDNA5; 13 copies in the 26-subunit Erlin1/2 complex as modelled; source: Expi293F, co-transfected with Erlin2-Flag; complex purified (StrepTactin, anti-FLAG M2, Superose 6) in DDM/CHS; not shown: Strep, N-terminal, kept; copies: 13

Columns and labels:
untagged PHB2 = molecular target: T1, untagged PHB2 (human, UniProt Q99623 1-299); experiment: cryo-EM structure; PHB1/2 complex after one-step StrepTactin purification, in 20 mM HEPES/KOH pH 7.4, 50 mM K-phosphate, 150 mM KCl, 5 mM magnesium acetate, 5 mM ATP, DDM/CHS; closed (2.4 Å) and open (3.1 Å) conformations, C11 symmetry; settings: both partners purified
T1 construct: PHB2 (prohibitin 2), human; 11 copies in the 22-subunit PHB1/2 complex; source: complex purified on StrepTactin; copies: 11
T1 sequence (Q99623 whole entry): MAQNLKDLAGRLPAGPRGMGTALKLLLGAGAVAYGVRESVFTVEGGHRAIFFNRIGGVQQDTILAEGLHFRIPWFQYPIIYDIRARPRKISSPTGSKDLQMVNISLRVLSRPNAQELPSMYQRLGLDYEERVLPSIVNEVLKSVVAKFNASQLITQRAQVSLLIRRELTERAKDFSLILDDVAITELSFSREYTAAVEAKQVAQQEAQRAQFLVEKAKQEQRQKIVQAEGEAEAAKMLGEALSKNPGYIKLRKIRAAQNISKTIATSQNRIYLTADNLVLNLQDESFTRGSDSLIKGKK

[1] = molecular target: the molecule itself; experiment: cryo-EM structure; Erlin1/2 complex after tandem affinity purification and SEC, in 50 mM HEPES/KOH pH 7.4, 150 mM NaCl, 0.02% DDM, 0.004% CHS; single-particle map at 3.0 Å, no symmetry applied in the last refinement

Binder	stoichiometry N (untagged PHB2)	binding result [1]
B1	11 heterodimers in the complex	–
B2	–	binds
B3	–	binds
